The record followed here is the Human Domainome abundance scans (Beltran et al. 2025).

± gives the uncertainty stated by the source.

The series can be described thus: abundance fitness (aPCA) (normalised: wild type 0, dead -1); higher = more abundant; growth selection in yeast, the domain comes from the species named. Particulars: Homo sapiens.
“NEDD4-like E3 ubiquitin-protein ligase WWP2 E457I, O00308” returned an abundance fitness of -0.285 ± 0.042. The value for “NEDD4-like E3 ubiquitin-protein ligase WWP2 E457K, O00308” was -0.118 ± 0.056; that for “NEDD4-like E3 ubiquitin-protein ligase WWP2 E457L, O00308” was -0.204 ± 0.056.

Substance “NEDD4-like E3 ubiquitin-protein ligase WWP2 E457M, O00308” gave an abundance fitness of -0.349 ± 0.071. On to “NEDD4-like E3 ubiquitin-protein ligase WWP2 E457N, O00308”, for which the abundance fitness was -0.189 ± 0.068. In turn, “NEDD4-like E3 ubiquitin-protein ligase WWP2 E457P, O00308” returned an abundance fitness of -0.5 ± 0.075. “NEDD4-like E3 ubiquitin-protein ligase WWP2 E457Q, O00308” gave an abundance fitness of -0.022 ± 0.056.

In turn, “NEDD4-like E3 ubiquitin-protein ligase WWP2 E457R, O00308” gave an abundance fitness of -0.251 ± 0.061. The value for “NEDD4-like E3 ubiquitin-protein ligase WWP2 E457S, O00308” was -0.201 ± 0.061; that for “NEDD4-like E3 ubiquitin-protein ligase WWP2 E457T, O00308” was -0.081 ± 0.067; that for “NEDD4-like E3 ubiquitin-protein ligase WWP2 E457V, O00308” was -0.188 ± 0.031. On to “NEDD4-like E3 ubiquitin-protein ligase WWP2 E457W, O00308”, for which the abundance fitness was -0.624 ± 0.096. With “NEDD4-like E3 ubiquitin-protein ligase WWP2 E457Y, O00308”, the abundance fitness is -0.216 ± 0.057. In turn, “NEDD4-like E3 ubiquitin-protein ligase WWP2 E480A, O00308” gave an abundance fitness of -0.08 ± 0.034. Next, “NEDD4-like E3 ubiquitin-protein ligase WWP2 E480C, O00308”: -0.611 ± 0.043.

In turn, “NEDD4-like E3 ubiquitin-protein ligase WWP2 E480D, O00308” gave an abundance fitness of 0.015 ± 0.06. On to “NEDD4-like E3 ubiquitin-protein ligase WWP2 E480F, O00308”, for which the abundance fitness is -0.239 ± 0.062.

Substance “NEDD4-like E3 ubiquitin-protein ligase WWP2 E480G, O00308” registered an abundance fitness of -0.038 ± 0.033. As to “NEDD4-like E3 ubiquitin-protein ligase WWP2 E480H, O00308”, the abundance fitness turned out to be 0.027 ± 0.068. Consider “NEDD4-like E3 ubiquitin-protein ligase WWP2 E480I, O00308”, for which the abundance fitness was -0.042 ± 0.047.

“NEDD4-like E3 ubiquitin-protein ligase WWP2 E480K, O00308” displayed an abundance fitness of -0.019 ± 0.05. Substance “NEDD4-like E3 ubiquitin-protein ligase WWP2 E480L, O00308” came in with an abundance fitness of -0.072 ± 0.042. As to “NEDD4-like E3 ubiquitin-protein ligase WWP2 E480M, O00308”, the abundance fitness was -0.058 ± 0.048. Turning to “NEDD4-like E3 ubiquitin-protein ligase WWP2 E480N, O00308”, the abundance fitness was -0.126 ± 0.068. On to “NEDD4-like E3 ubiquitin-protein ligase WWP2 E480P, O00308”, for which the abundance fitness is -0.141 ± 0.062. The substance “NEDD4-like E3 ubiquitin-protein ligase WWP2 E480Q, O00308” came in with an abundance fitness of -0.053 ± 0.04. Consider “NEDD4-like E3 ubiquitin-protein ligase WWP2 E480R, O00308”, for which the abundance fitness was -0.078 ± 0.038. On to “NEDD4-like E3 ubiquitin-protein ligase WWP2 E480S, O00308”, for which the abundance fitness was -0.15 ± 0.053.

Take “NEDD4-like E3 ubiquitin-protein ligase WWP2 E480T, O00308”: the abundance fitness is -0.119 ± 0.062. As to “NEDD4-like E3 ubiquitin-protein ligase WWP2 E480V, O00308”, the abundance fitness was -0.064 ± 0.035. Next, “NEDD4-like E3 ubiquitin-protein ligase WWP2 E480Y, O00308”: 0.036 ± 0.065; “NEDD4-like E3 ubiquitin-protein ligase WWP2 F462A, O00308”: -1.02 ± 0.067. For “NEDD4-like E3 ubiquitin-protein ligase WWP2 F462C, O00308”, the abundance fitness is -0.88 ± 0.054. For the substance “NEDD4-like E3 ubiquitin-protein ligase WWP2 F462D, O00308”, the abundance fitness was -0.675 ± 0.084.

Turning to “NEDD4-like E3 ubiquitin-protein ligase WWP2 F462G, O00308”, the abundance fitness is -0.8 ± 0.054.

In turn, “NEDD4-like E3 ubiquitin-protein ligase WWP2 F462I, O00308” gave an abundance fitness of -1.03 ± 0.16.

“NEDD4-like E3 ubiquitin-protein ligase WWP2 F462K, O00308” returned an abundance fitness of -0.789 ± 0.16. In turn, “NEDD4-like E3 ubiquitin-protein ligase WWP2 F462L, O00308” returned an abundance fitness of -0.9 ± 0.061. The value for “NEDD4-like E3 ubiquitin-protein ligase WWP2 F462M, O00308” was -0.66 ± 0.08. “NEDD4-like E3 ubiquitin-protein ligase WWP2 F462N, O00308”: the abundance fitness was -0.945 ± 0.082. “NEDD4-like E3 ubiquitin-protein ligase WWP2 F462P, O00308” displayed an abundance fitness of -0.605 ± 0.099. Next, “NEDD4-like E3 ubiquitin-protein ligase WWP2 F462Q, O00308”: -1.02 ± 0.16. The value for “NEDD4-like E3 ubiquitin-protein ligase WWP2 F462R, O00308” was -0.851 ± 0.046.

The substance “NEDD4-like E3 ubiquitin-protein ligase WWP2 F462S, O00308” had an abundance fitness of -1.04 ± 0.051. Substance “NEDD4-like E3 ubiquitin-protein ligase WWP2 F462T, O00308” yielded an abundance fitness of -0.87 ± 0.16. Next, “NEDD4-like E3 ubiquitin-protein ligase WWP2 F462V, O00308”: -0.939 ± 0.037; “NEDD4-like E3 ubiquitin-protein ligase WWP2 F462W, O00308”: -0.152 ± 0.066. In turn, “NEDD4-like E3 ubiquitin-protein ligase WWP2 F462Y, O00308” yielded an abundance fitness of -0.048 ± 0.081. Take “NEDD4-like E3 ubiquitin-protein ligase WWP2 F472A, O00308”: the abundance fitness is -0.373 ± 0.052. In the case of “NEDD4-like E3 ubiquitin-protein ligase WWP2 F472C, O00308”, the abundance fitness is -0.48 ± 0.067. As to “NEDD4-like E3 ubiquitin-protein ligase WWP2 F472D, O00308”, the abundance fitness was -0.319 ± 0.072.

With “NEDD4-like E3 ubiquitin-protein ligase WWP2 F472E, O00308”, the abundance fitness was -0.357 ± 0.061.

In turn, “NEDD4-like E3 ubiquitin-protein ligase WWP2 F472H, O00308” returned an abundance fitness of -0.291 ± 0.033. As to “NEDD4-like E3 ubiquitin-protein ligase WWP2 F472I, O00308”, the abundance fitness is -0.495 ± 0.082.

In turn, “NEDD4-like E3 ubiquitin-protein ligase WWP2 F472K, O00308” came in with an abundance fitness of -0.355 ± 0.07. “NEDD4-like E3 ubiquitin-protein ligase WWP2 F472L, O00308” displayed an abundance fitness of -0.289 ± 0.052. The substance “NEDD4-like E3 ubiquitin-protein ligase WWP2 F472N, O00308” returned an abundance fitness of -0.373 ± 0.053.

Turning to “NEDD4-like E3 ubiquitin-protein ligase WWP2 F472Q, O00308”, the abundance fitness was -0.402 ± 0.045. The value for “NEDD4-like E3 ubiquitin-protein ligase WWP2 F472S, O00308” was -0.351 ± 0.048. On to “NEDD4-like E3 ubiquitin-protein ligase WWP2 F472T, O00308”, for which the abundance fitness was -0.15 ± 0.065. “NEDD4-like E3 ubiquitin-protein ligase WWP2 F472V, O00308”: the abundance fitness is -0.392 ± 0.044. For “NEDD4-like E3 ubiquitin-protein ligase WWP2 F472W, O00308”, the abundance fitness was -0.129 ± 0.05.

“NEDD4-like E3 ubiquitin-protein ligase WWP2 F472Y, O00308” returned an abundance fitness of -0.025 ± 0.057. “NEDD4-like E3 ubiquitin-protein ligase WWP2 F479C, O00308”: the abundance fitness was -0.054 ± 0.046.

On to “NEDD4-like E3 ubiquitin-protein ligase WWP2 F479D, O00308”, for which the abundance fitness is 0.02 ± 0.072. Regarding “NEDD4-like E3 ubiquitin-protein ligase WWP2 F479E, O00308”, the abundance fitness stood at 0.027 ± 0.049.

In turn, “NEDD4-like E3 ubiquitin-protein ligase WWP2 F479G, O00308” returned an abundance fitness of 0.017 ± 0.04.

The substance “NEDD4-like E3 ubiquitin-protein ligase WWP2 F479H, O00308” displayed an abundance fitness of -0.036 ± 0.083.

“NEDD4-like E3 ubiquitin-protein ligase WWP2 F479I, O00308”: the abundance fitness is -0.086 ± 0.07. For the substance “NEDD4-like E3 ubiquitin-protein ligase WWP2 F479K, O00308”, the abundance fitness was -0.015 ± 0.051. Substance “NEDD4-like E3 ubiquitin-protein ligase WWP2 F479L, O00308” gave an abundance fitness of -0.054 ± 0.049. “NEDD4-like E3 ubiquitin-protein ligase WWP2 F479P, O00308” displayed an abundance fitness of -0.003 ± 0.054. On to “NEDD4-like E3 ubiquitin-protein ligase WWP2 F479Q, O00308”, for which the abundance fitness was -0.082 ± 0.053.

For “NEDD4-like E3 ubiquitin-protein ligase WWP2 F479R, O00308”, the abundance fitness was -0.046 ± 0.049.

For the substance “NEDD4-like E3 ubiquitin-protein ligase WWP2 F479S, O00308”, the abundance fitness is -0.013 ± 0.042. Next, “NEDD4-like E3 ubiquitin-protein ligase WWP2 F479T, O00308”: 0.025 ± 0.061. On to “NEDD4-like E3 ubiquitin-protein ligase WWP2 F479V, O00308”, for which the abundance fitness was -0.004 ± 0.04. The value for “NEDD4-like E3 ubiquitin-protein ligase WWP2 F479W, O00308” was -0.103 ± 0.058.

Turning to “NEDD4-like E3 ubiquitin-protein ligase WWP2 F479Y, O00308”, the abundance fitness was -0.18 ± 0.08.
